From patent publication US20170002094A1 (Takeda / Millennium, published 2017)
Where two headings read alike, the source gives them in different places.

Columns and labels:
[1] = target: T1, human plasma kallikrein (active form) (human, UniProt P03952 20-638)
[2] = target: T1, human plasma kallikrein (active form); test: cell-based or functional assay

T1 sequence (P03952 20-638 limits assumed): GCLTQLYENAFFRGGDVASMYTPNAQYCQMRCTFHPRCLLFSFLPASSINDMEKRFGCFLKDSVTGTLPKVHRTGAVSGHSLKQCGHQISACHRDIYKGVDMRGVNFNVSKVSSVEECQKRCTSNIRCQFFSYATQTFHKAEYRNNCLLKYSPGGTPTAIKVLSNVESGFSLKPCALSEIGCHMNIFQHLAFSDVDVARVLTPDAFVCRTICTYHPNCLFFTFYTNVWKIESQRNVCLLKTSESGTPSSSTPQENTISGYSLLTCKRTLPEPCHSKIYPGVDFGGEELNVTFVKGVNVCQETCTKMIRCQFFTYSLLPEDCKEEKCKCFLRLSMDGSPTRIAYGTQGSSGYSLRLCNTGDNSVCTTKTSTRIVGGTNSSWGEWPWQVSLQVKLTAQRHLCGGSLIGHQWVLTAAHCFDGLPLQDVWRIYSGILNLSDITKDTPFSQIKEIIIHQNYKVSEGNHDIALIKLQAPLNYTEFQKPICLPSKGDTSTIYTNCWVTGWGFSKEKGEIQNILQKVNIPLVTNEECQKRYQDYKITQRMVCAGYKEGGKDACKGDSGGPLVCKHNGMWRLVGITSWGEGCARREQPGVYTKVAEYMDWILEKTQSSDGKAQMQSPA

Molecule: ecallantide (designed binder)
- IC50 (read off the curve) [1]: 70 nM

B1: DX-2930 (antibody, human IgG1, kappa, V domains shown)
VH: EVQLLESGGGLVQPGGSLRLSCAASGFTFSHYIMMWVRQAPGKGLEWVSGIYSSGGITVYADSVKGRFTISRDNSKNTLYLQMNSLRAEDTAVYYCAYRRIGVPRRDEFDIWGQGTMVTVSS
VL: DIQMTQSPSTLSASVGDRVTITCRASQSISSWLAWYQQKPGKAPKLLIYKASTLESGVPSRFSGSGSGTEFTLTISSLQPDDFATYYCQQYNTYWTFGQGTKVEIKR
- IC50 (read off the curve) [2]: ~70 nM
